Literature values as cited in PMC3530658.
pKd: −log10 of the molar value.

Molecular target: FEN-1 (Homo sapiens) (UniProt P39748)
Sequence of UniProt P39748 (P39748 whole entry): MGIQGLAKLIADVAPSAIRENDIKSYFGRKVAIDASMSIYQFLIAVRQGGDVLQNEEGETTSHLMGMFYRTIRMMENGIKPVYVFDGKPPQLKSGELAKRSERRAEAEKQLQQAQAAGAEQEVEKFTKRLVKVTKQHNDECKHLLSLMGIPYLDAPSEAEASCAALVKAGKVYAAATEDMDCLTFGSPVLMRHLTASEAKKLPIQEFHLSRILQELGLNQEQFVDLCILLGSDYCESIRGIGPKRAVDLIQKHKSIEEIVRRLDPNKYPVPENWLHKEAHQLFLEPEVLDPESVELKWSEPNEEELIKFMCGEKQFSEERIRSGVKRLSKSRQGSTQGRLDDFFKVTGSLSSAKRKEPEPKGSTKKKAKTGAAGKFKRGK

pKd: 6.70
Substance: NEIL1 CTD (from UniProt Q96FI4)
